# Experimental data published in paper PMC9313427, “Identification and Characterization of an RRM-Containing, RNA Binding Protein in Acinetobacter baumannii”.
# T1: rAB-Elavl (Acinetobacter baumannii, UniProt D0CAL6 1-86)
# T1 sequence: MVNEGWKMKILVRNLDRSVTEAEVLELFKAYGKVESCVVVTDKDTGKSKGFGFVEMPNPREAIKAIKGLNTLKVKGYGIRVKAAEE
# How the values were obtained:
# Conditions in all cases: protein: recombinant; tags: C-terminal 6xHis; label: 5'-biotin; single strand
# [1] = biological target: T1, rAB-Elavl; test: HTRF-FRET saturation; EC50; unit implied; legend: not well bound; AlphaScreen: 25 mM HEPES pH 7.4, 100 mM NaCl, 0.1% BSA, RT; REMSA: 20 mM HEPES pH 7.5, 50 mM KCl, 450 uM BSA, 0.25% glycerol, RT (gel at 4 C); NMR: 20 mM HEPES
# [2] = biological target: T1, rAB-Elavl; test: AlphaScreen saturation; EC50, probe titrated, 500 nM protein; AlphaScreen: 25 mM HEPES pH 7.4, 100 mM NaCl, 0.1% BSA, RT; REMSA: 20 mM HEPES pH 7.5, 50 mM KCl, 450 uM BSA, 0.25% glycerol, RT (gel at 4 C); NMR: 20 mM HEPES
# [3] = biological target: T1, rAB-Elavl; test: AlphaScreen saturation (probe length series); EC50; unit implied; AlphaScreen: 25 mM HEPES pH 7.4, 100 mM NaCl, 0.1% BSA, RT; REMSA: 20 mM HEPES pH 7.5, 50 mM KCl, 450 uM BSA, 0.25% glycerol, RT (gel at 4 C); NMR: 20 mM HEPES
# [4] = biological target: T1, rAB-Elavl; test: AlphaScreen saturation (probe length series); EC50 not converged; legend: minimal length for binding is 19 nt; AlphaScreen: 25 mM HEPES pH 7.4, 100 mM NaCl, 0.1% BSA, RT; REMSA: 20 mM HEPES pH 7.5, 50 mM KCl, 450 uM BSA, 0.25% glycerol, RT (gel at 4 C); NMR: 20 mM HEPES
# [5] = biological target: T1, rAB-Elavl; test: AlphaScreen saturation; EC50, probe titrated, 500 nM protein; conflicts with 35.62 nM in Fig 8C; AlphaScreen: 25 mM HEPES pH 7.4, 100 mM NaCl, 0.1% BSA, RT; REMSA: 20 mM HEPES pH 7.5, 50 mM KCl, 450 uM BSA, 0.25% glycerol, RT (gel at 4 C); NMR: 20 mM HEPES
# [6] = biological target: T1, rAB-Elavl; test: AlphaScreen saturation (probe length series); EC50; unit implied; named ARE pos 29 nt in text; AlphaScreen: 25 mM HEPES pH 7.4, 100 mM NaCl, 0.1% BSA, RT; REMSA: 20 mM HEPES pH 7.5, 50 mM KCl, 450 uM BSA, 0.25% glycerol, RT (gel at 4 C); NMR: 20 mM HEPES
# [7] = biological target: T1, rAB-Elavl; test: HTRF-FRET saturation; EC50; AlphaScreen: 25 mM HEPES pH 7.4, 100 mM NaCl, 0.1% BSA, RT; REMSA: 20 mM HEPES pH 7.5, 50 mM KCl, 450 uM BSA, 0.25% glycerol, RT (gel at 4 C); NMR: 20 mM HEPES
# [8] = biological target: T1, rAB-Elavl; test: AlphaScreen time-course kinetics (koff/kon); koff 0.02687 min-1; kon printed as 2.035 M-1 min-1 (exponent apparently lost); AlphaScreen: 25 mM HEPES pH 7.4, 100 mM NaCl, 0.1% BSA, RT; REMSA: 20 mM HEPES pH 7.5, 50 mM KCl, 450 uM BSA, 0.25% glycerol, RT (gel at 4 C); NMR: 20 mM HEPES
binder,measurement,setting,value
ACCACCCACCACCCACCCACCACCCA (ssRNA) [ARE neg],apparent K (half saturation),[1],946 nM
same,apparent K (half saturation),[2],257 nM
AUUAUUUAUUAUUUAUUUA (ssRNA) [ARE pos 19],apparent K (half saturation),[3],64.8 nM
AUUAUUUAUUA (ssRNA) [ARE pos 11],binding result,[4],no binding
AUUAUUUAUUAUUUAUUUAUUAUUUA (ssRNA) [ARE pos],apparent K (half saturation),[5],0.5 nM
same,apparent K (half saturation),[6],35.6 nM
same,apparent K (half saturation),[7],35.1 nM
same,Kd,[8],0.0132 µM
